Test results from patent US6436666.
Several values for one entry are separate records, joined by “and”; a condition that tells them apart may be missing. Equal values may be shown once.

Experiments:
[1] = biological target: Substrate: protein A-G-G-G-G-7aa-NS4B/5A cleavage site-8aa-FLAG-G-FLAG-G-FLAG (Example 6) (hepatitis C virus); experiment: time-resolved fluorometry: 20 nM substrate captured on IgG coated Immulon-4 plate, detected with Eu^3+-anti-FLAG MoAb
[2] = biological target: pro A-NS5 target polypeptide of Examples 3 and 4 (protein A anchor region, linker, protease target site of HCV NS5A/5B, linker, FLAG epitope tag region) (hepatitis C virus); experiment: ELISA: pro A-NS5 on human IgG plate, no protease, anti-FLAG then goat anti-mouse conjugate
[3] = biological target: pro A-NS5, polypeptide substrate of HCV protease (Example 1 construct: Protein A - NS5A/5B protease target site - three FLAG tags) (hepatitis C virus); experiment: ELISA: proA-NS5 2 µg/ml captured on IgG plate, no protease, anti-FLAG then goat anti-mouse-HRP, OPD
[4] = biological target: pro A-NS5, polypeptide substrate of HCV protease (Example 1 construct: Protein A - NS5A/5B protease target site - three FLAG tags) (hepatitis C virus); experiment: ELISA: pro A-NS5 10 µg/ml captured on IgG plate, no protease, anti-FLAG then goat anti-mouse-HRP, OPD
[5] = biological target: pro A-NS5, polypeptide substrate of HCV protease (Example 1 construct: Protein A - NS5A/5B protease target site - three FLAG tags) (hepatitis C virus); experiment: ELISA: pro A-NS5 on IgG plate, no protease, anti-FLAG then goat anti-mouse-HRP; Exp. 1
[6] = biological target: pro A-NS5, polypeptide substrate of HCV protease (Example 1 construct: Protein A - NS5A/5B protease target site - three FLAG tags) (hepatitis C virus); experiment: ELISA: pro A-NS5 on IgG plate, no protease, anti-FLAG then goat anti-mouse-HRP; Exp. 2
[7] = biological target: Peptide 4A, a co-factor of the NS3 HCV protease (Example 2)

In the case of “Eu^3+-anti-FLAG MoAb (Sigma via Kodak, cat#IB13026, lot# 710413) (antibody)”, the Eu^3+ counts [1] is reported as 1.31e+06 Eu^3+ counts and 1.26e+06 Eu^3+ counts.

Work on “Mouse monoclonal anti-FLAG M2 (IBI, IBI13010/6j0612) (antibody)” yielded an OD w/o DMSO [2] of 2.6 OD.

Molecule “monoclonal anti-FLAG mouse antibody (available from Kodak)” has an OD [3] of 0.77 OD, an OD [4] of 1.21 OD and an OD [5] of 1.23 OD. The OD [6] was 0.93 OD.

B1: protease 1: Ni-13 (F21) 20 µM, preparation made at Chiron (protein)
chain: APITAYAQQTRGLLGCIITSLTGRDKNQVEGEVQIVSTAAQTFLATCINGVCWTVYHGAGTRTIASPKGPVIQMYTNVDQDLVGWPAPQGSRSLTPCTCGSSDLYLVTRHADVIPVRRRGDSRGSLLSPRPISYLKGSSGGPLLCPAGHAVGIFRAAVCTRGVAKAVDFIPVENLETTMRS
With B1 the “cleavage of the NS4B/5A substrate by the protease with and without the co-factor peptide” value [7] was “These data demonstrates the operability of the screening assay using HCV NS4B/5A protease cleavage site with co-factor peptide 4A”.
